# According to patent US20240376207A1:
# Like-named read-outs stand apart in the source and are kept apart here.
# Experiments:
# Assay in all cases: cell-based or functional assay
# [1] = molecular target: human PVRIG expressed on cells (human) (UniProt Q6DKI7)
# [2] = molecular target: human PVRIG expressed on cells (human) (UniProt Q6DKI7); remark: listed apart in the source
# [3] = molecular target: human PVRIG expressed on cells (human) (UniProt Q6DKI7); remark: listed apart in the source
# human PVRIG expressed on cells (human), sequence (Q6DKI7 41-326 limits assumed, form in doubt): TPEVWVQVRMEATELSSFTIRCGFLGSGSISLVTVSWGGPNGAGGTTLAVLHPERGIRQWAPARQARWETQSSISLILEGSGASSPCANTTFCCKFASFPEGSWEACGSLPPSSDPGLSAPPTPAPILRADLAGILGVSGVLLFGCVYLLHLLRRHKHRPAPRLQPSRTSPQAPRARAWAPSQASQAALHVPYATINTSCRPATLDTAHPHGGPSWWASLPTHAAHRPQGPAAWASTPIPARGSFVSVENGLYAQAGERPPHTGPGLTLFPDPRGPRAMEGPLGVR
substance,measurement,setting,value
IgG4 (control antibody),"MLR IFNγ (pg/mL), 4 nM antibody (control baseline)",[1],984 pg/mL
same,"MLR IFNγ (pg/mL), 20 nM antibody (control baseline)",[1],814 pg/mL
same,"MLR IFNγ (pg/mL), 100 nM antibody (control baseline)",[1],1310 pg/mL
same,"NK92 killing of K562, killing activity (%), 20 nM antibody (control baseline)",[1],22%
same,"NK92 killing of K562, killing activity (%), 100 nM antibody (control baseline)",[1],22%
same,"NK92 killing of K562, killing activity (%), 4 nM antibody (control baseline)",[2],11.2%
same,"NK92 killing of K562, killing activity (%), 20 nM antibody (control baseline)",[2],11.7%
same,"NK92 killing of K562, killing activity (%), 100 nM antibody (control baseline)",[2],9.2%
same,"MLR IFNγ (pg/mL), 20 nM antibody (control baseline)",[3],74 pg/mL
same,"MLR IFNγ (pg/mL), 100 nM antibody (control baseline)",[3],89 pg/mL
